The record followed here is US7422883 (INTER K, dated 2008).

No end group written: not given here. *: point of attachment. Biotin = O=C1N[C@H]2[C@H](CS[C@H]2CCCCC(=O)*)N1

For experiment [1], the target named is T1, ERK2 (soluble ERK2 used in the ELISAs of Examples 10 to 12) (Mus musculus (Mouse), UniProt P63085 1-358, limits assumed). Briefly: ELISA, corrected for non-specific binding (FIG. 34).
The target of experiment [2] is T2, GST.ERK2 (non-phosphorylated ERK2 coupled to glutathione-S-transferase) (Mus musculus (Mouse), UniProt P63085 1-358).
T2 construct: not shown: glutathione-S-transferase encoded by pGEX vector; N-terminal position assu
Briefly: ELISA over a range of peptide concentrations (FIG. 20). A general note: In an ELISA, binding on a coated surface is turned into a signal by an enzyme label.

For experiment [3], the target named is T3, ERK2 cleaved from GST-ERK2 by thrombin (Mus musculus (Mouse), UniProt P63085 1-358, limits assumed).
T3 construct: also called ERK2 (thrombin cleaved)
Nature of the experiment: ELISA with thrombin-cleaved ERK2 (FIG. 23).

Experiment [4] deals with T2, GST.ERK2 (non-phosphorylated ERK2 …). Briefly: ELISA, biotinylated peptide on streptavidin plate, detection with SC1647. As for the experimental part:
Peptide fragments corresponding to regions of the cytoplasmic tail domain of the β6 subunit were screened in an enzyme-linked immunosorbent assay (ELISA) for binding with ERK2. The 52 amino acid long β6 cytoplasmic tail is shown in FIG. 16 as are the amino acid sequences for the cytoplasmic domains of the β1 to β3 subunits. In particular, four synthetic peptides designated fragment 1 to fragment 4 were prepared and biotinylated at the N-terminal end of each, respectively (Auspep Pty Ltd, Melbourne Australia).
Overlapping biotinylated fragments 1 to 4 were coated onto streptavidin coated polystyrene plates (Pierce, Rockford Ill. USA, Cat No. 15125) and the ELISA performed substantially according to manufacturers instructions. […]
Binding of ERK to the peptides is detected using 100 µl anti-ERK1/2 mAb SC1647 (Santa Cruz) as the primary antibody at a dilution of 1:700 (isotype matched antibody IgG2b is used as a control). […] A […] of detection reagent (alkaline phosphatase detection kit-Biorad) is then introduced into each well after a final washing step and allowed to react for 15-30 minutes at room temperature in the dark before absorbance is measured at 405 nm. […]

Experiment [5] addresses T1, ERK2 (soluble ERK2 used in the ELISAs …). Nature of the experiment: ELISA of ERK2 on synthetic peptide.

T1 sequence (P63085 whole entry): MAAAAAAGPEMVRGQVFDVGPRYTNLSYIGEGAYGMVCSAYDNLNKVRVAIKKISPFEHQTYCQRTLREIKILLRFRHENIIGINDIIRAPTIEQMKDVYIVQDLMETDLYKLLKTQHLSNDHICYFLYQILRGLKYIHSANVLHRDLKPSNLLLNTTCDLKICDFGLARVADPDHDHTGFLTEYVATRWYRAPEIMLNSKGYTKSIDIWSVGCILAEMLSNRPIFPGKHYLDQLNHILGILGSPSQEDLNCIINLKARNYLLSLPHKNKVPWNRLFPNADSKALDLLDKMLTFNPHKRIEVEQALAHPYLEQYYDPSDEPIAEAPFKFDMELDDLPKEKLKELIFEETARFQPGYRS
T2 sequence (P63085 whole entry): as above
T3 sequence (P63085 whole entry): as above

As to RSRARYEMASNPLYR (also called β5 peptide; β5 fragment) [β5 cytoplasmic domain peptide RSRARYEMASNPLYR], the binding result in experiment [1] is reported as “binds”.

In the case of RSKAKWQTGTNPLYR (also: biotinylated, position not given here, also called 15-mer β6 peptide) [15 mer test peptide (seq. 4) RSKAKWQTGTNPLYR], the binding result in experiment [1], in experiment [2] and in experiment [3] was “binds” in each case.

In the case of Biotin-RSKAKWQTGTNPLYRGSTST (also called peptide fragment 2) [Fragment 2 of the β6 cytoplasmic tail], the binding result in experiment [4] is “binds”.

In the case of RARAKWDTANNPLYK (also called β3 peptide) [β3 cytoplasmic domain peptide RARAKWDTANNPLYK], the binding result in experiment [1] is “binds”.

Turning to KFEKEKMNAKWDTGENPIYK (also called β1 peptide) [β1 cytoplasmic domain peptide KFEKEKMNAKWDTGENPIYK], in experiment [5], the binding result was “no binding (tested: ERK2 (1 µm) by the legend of FIG. 35C)”.

For the molecule RSKAKNPLYR (4 with WQTGT omitted) [10 mer peptide 10(4) RSKAKNPLYR], the binding result in experiment [3] is reported as “binds”.

As to RSKAKWQTGT (also: biotinylated, position not given here) [10 mer test peptide RSKAKWQTGT], the binding result in experiment [2] is reported as “binds”.
